From patent US20060094659A1

Legend:
[1] = biological target: CD44 on the surface of U937-C5aR cells and human neutrophils (human) (UniProt P16070); experiment: Biacore SPR, U937-C5aR cells pretreated with 25 µg/ml anti-CD44, DBP immobilized
[2] = biological target: CD44 on the surface of U937-C5aR cells and human neutrophils (human) (UniProt P16070); experiment: AlexaFluor 488-labeled DBP binding to U937-C5aR cells pretreated with antibody, fluorescence
[3] = biological target: annexin A2 on the surface of U937-C5aR cells and human neutrophils (human) (UniProt P07355); experiment: as above
[4] = biological target: cell surface DBP binding site complex; experiment: Biacore SPR, U937-C5aR cells pretreated with 0.5 µM peptide 2, DBP immobilized (competitor: immobilized DBP)

Sequence of annexin A2 on the surface of U937-C5aR cells and human neutrophils (human) (P07355 2-339): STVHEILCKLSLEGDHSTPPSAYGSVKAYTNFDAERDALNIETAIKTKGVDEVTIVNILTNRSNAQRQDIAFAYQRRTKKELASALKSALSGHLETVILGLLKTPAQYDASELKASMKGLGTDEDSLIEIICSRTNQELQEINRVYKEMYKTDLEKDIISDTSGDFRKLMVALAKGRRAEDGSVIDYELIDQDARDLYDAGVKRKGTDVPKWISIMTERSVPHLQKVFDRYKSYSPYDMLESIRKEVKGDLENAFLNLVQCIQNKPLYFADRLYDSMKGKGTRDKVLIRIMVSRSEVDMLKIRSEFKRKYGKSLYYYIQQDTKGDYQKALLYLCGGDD

Molecule “affinity-purified goat polyclonal anti-CD44 (N-18), Santa Cruz Biotechnology (antibody)” has a percent inhibition of cell binding to immobilized DBP [1] of 50% and a percent blocking of DBP binding to cells [2] of 50%.

Work on “affinity-purified goat polyclonal anti-annexin A2 (C-16), Santa Cruz Biotechnology (antibody)” yielded a percent blocking of DBP binding to cells [3] of 50%.

B1: DBP peptide 2 (residues 150-172) (peptide)
peptide: NYGQAPLSLLVSYTKSYLSMVGS
For B1, the percent inhibition of cell binding to immobilized DBP [4] was 50%.
